Source: article PMC5441561 (Science (New York, N.Y.), 2017)
Read-outs that look alike come from different tables or passages of the source.

What was measured:
crystal structure [1] = molecular target: the molecule itself; test: crystal structure
crystal structure [2] = molecular target: the molecule itself; test: crystal structure; remark: listed apart in the source

B1: KaiA_(cryst) (domain or fragment, Thermosynechococcus elongatus)
chain: SNVDPQHRLSQKLKERLGYLGVYYKRDTAFFFRRMSPADKRKLLDELRSIYRTIVLEYFNTDAKVNERIDEFVSKAFFADISVSQVLEIHVELMDTFSKQLKLEGRSEDILLDYRLTLIDVIAHLSEMYRRSIPREV
stoichiometry N (crystal structure [1]): 2

B2: KaiC_(S431E) (enzyme, Thermosynechococcus elongatus, UniProt Q79V60 1-518, looked up)
chain: MTNLPEHQSSPTEQSSAEVKKIPTMIEGFDDISHGGLPQGRTTLVSGTSGTGKTLFAVQFLYNGITIFNEPGIFVTFEESPQDIIKNALSFGWNLQSLIDQGKLFILDASPDPDGQEVAGDFDLSALIERIQYAIRKYKATRVSIDSVTAVFQQYDAASVVRREIFRLAFRLKQLGVTTIMTTERVDEYGPVARFGVEEFVSDNVVILRNVLEGERRRRTVEILKLRGTTHMKGEYPFTINNGINIFPLGAMRLTQRSSNVRVSSGVKTLDEMCGGGFFKDSIILATGATGTGKTLLVSKFLETGCQQGERALLFAYEESRAQLSRNASSWGIDFEELERRGLLRIICAYPESAGLEDHLQIIKSEIADFKPSRVAIDSLSALARGVSNNAFRQFVIGVTGFAKQEEITGFFTNTTDQFMGSNSITESHIETITDTILLLQYVEIRGEMSRAINVFKMRGSWHDKGIREYVITEKGAEIRDSFRNFEGIISGTPTRISVDEKTELARIAKGMQDLESE
stoichiometry N (crystal structure [2]): 6
